Results from paper PMC3351107 (Cerebellum (London, England), 2009).

Assays:
cross-linking = biological target: the molecule itself; test: cross-linking
[1] = biological target: T1, myo-inositol monophosphatase 1 (IMPA1), purified bovine brain (bovine, UniProt P20456 1-277); test: cross-linking
T1 sequence (looked up): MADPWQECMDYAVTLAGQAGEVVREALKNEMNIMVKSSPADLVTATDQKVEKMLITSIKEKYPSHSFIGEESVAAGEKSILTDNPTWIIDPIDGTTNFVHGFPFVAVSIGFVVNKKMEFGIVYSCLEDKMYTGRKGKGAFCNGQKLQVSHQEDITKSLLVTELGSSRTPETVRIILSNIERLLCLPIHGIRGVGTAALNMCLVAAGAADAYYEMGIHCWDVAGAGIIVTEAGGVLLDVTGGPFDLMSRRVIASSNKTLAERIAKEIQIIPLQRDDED

binding result [1]: binds
B1: S100B, purified bovine brain (natural protein, UniProt P02638 1-92, looked up)
chain: MSELEKAVVALIDVFHQYSGREGDKHKLKKSELKELINNELSHFLEEIKEQEVVDKVMETLDSDGDGECDFQEFMAFVAMITTACHEFFEHE
binding result (cross-linking): binds
